Where “and” joins values, the source holds several entries; their conditions need not be identical. Equal values may be shown once. Read-outs that look alike come from different tables or passages of the source.
Legend:
[1] = Thermal denaturation followed by CD spectroscopy; assay type: physicochemical; conditions: for Tm: apoprotein 0.2 mg/mL, 10 mM potassium phosphate pH 7.8, 50 mM (NH4)2SO4; for ΔH (enthalpy of unfolding) / ΔS (entropy of unfolding): apoprotein, single-stage model; for ΔG^298: calculated from ΔH and ΔS at 298 K
Method: The effect of substitutions of conserved amino acids in the active site of ALKBH3 on its thermal stability was studied by circular dichroism (CD) spectroscopy combined with thermal denaturation of the samples. The CD data were collected for wt and mutant apoproteins at various temperatures (25–70 °C) with 2–5 °C intervals (Supplementary Figure S3). […] Melting profiles expressed as a temperature dependence of the mean residue ellipticity at 218 nm were largely sigmodal, indicating the presence of a single transition between the folded and unfolded state (Figure 6B).
The melting profiles were analyzed quantitatively using characteristic wavelengths between 208 and 222 nm by a single-stage model.
Thermal stability experiments were performed under the same conditions. The spectra were collected from 25 to 70 °C, with the samples incubated at each temperature for 3–5 min before measuring. After that, each sample was gradually cooled to 25 °C and the spectrum was recorded again to observe possible refolding of the protein. Melting curves were corrected for background, transformed to the mean residue ellipticity units, and smoothed using the Savitzky–Golay method with a polynomial order of 3. Values of [θ] at wavelengths of 208 and 218 nm as a function of temperature were used to determine the thermodynamics of folding. The values of Tm and ΔH were determined by non-linear regression analysis with the help of Equations (6)–(8):(6) θt=θu+θf−θuK/1+K, (7) K=exp(ΔH/1.987·tt/Tm−1)=exp(−ΔH−t·ΔS/1.987·t), (8) ΔG=−RTlnK where θt—the mean residue ellipticity (in deg·cm^2·dmol^−1) at any given temperature t; θu—the mean residue ellipticity of the unfolded protein; θf—the mean residue ellipticity of the folded protein; K—the constant of unfolding; Tm—the melting temperature; ΔH—the enthalpy of unfolding, ΔS—the entropy of unfolding.
Figure 6 Thermal stability of wt and mutant ALKBH3 proteins measured by CD spectroscopy. (A) Spectra of wt ALKBH3 between 180 and 270 nm at 25 °C (light blue), after heating to 70 °C (dark blue), and cooling again to 25 °C (dashed light blue). (B) Representative melting profiles of wt (blue), Y143F (yellow), Y143A (green), L177A (red), and H191A ALKBH3 (violet) derived from the θ values at 218 nm. The unfolding transitions were monitored 0.2 mg/mL of the apoprotein in 10 mM Potassium Phosphate (pH 7.8) and 50 mM (NH4)2SO4.

[2] = Equilibrium fluorescence titration with 2OG; assay type: binding; conditions: 1 µM apoprotein, 25 °C, read-out: Dissociation constant Kd, 2OG
From the text: To investigate the impact of selected mutations on ALKBH3’s ability to bind its cofactor, co-substrate, and methylated DNA, the fluorescent titration method was employed. It is well-established that enzyme–ligand binding typically leads to a protein conformational change, which in turn can alter the fluorescence intensity of tryptophan and tyrosine residues within the protein sequence. […] In this study, transitional metals (Fe(II), Ni(II), and Co(II)), 2OG, and the m3C substrate served as titrants. Protein fluorescence quenching was measured after the addition of an excess of the ligand to 1 µM of enzyme (Supplementary Figure S2). To determine the equilibrium dissociation constant’s Kd values, the resulting titration curves were analyzed using a non-linear regression algorithm (see Section 4.3 of “Materials and Methods” for details). […] As indicated by the data presented in Table 2, the stability of the wt ALKBH3 apoenzyme’s affinity to various ligands and damaged DNA generally corresponds to the stability of such complexes for AlkB and ALKBH2 enzymes. […] The binding of Ni(II) and Co(II) ions of similar radii was weakened by approximately two-fold. […] This behavior is more characteristic of the bacterial homolog AlkB rather than human ALKBH2 [7].
The intrinsic tryptophan fluorescence quenching was monitored at the maximum of emission (345 nm, in most cases) using an excitation wavelength of 280 nm, and 5 nm slits. An amount of 2 mM of (NH4)2Fe(SO4)2·6H2O, 2 mM of NiSO4×7H2O, 2 mM of CoSO4·7H2O, 2 mM of 2OG, or 100 µM of m3C substrate was titrated into 1 µM of apoprotein (a free enzyme with no metal or 2OG added) in the presence of 50 mM of HEPES-KOH (pH 7.8), 50 mM of KCl, and 10 mM of MgCl2. When titrating with DNA, the buffer was supplemented with 2 mM of EDTA. The dissociation constant Kd for a model of one-step binding (E + L ↔ EL) was determined using Equations (2)–(5) and a non-linear regression algorithm in the OriginPro 8.1 software (OriginLab Corp., Northampton, MA, USA):(2) Kd=E[L]/[EL] (3) F=f0+f1E+f2[EL] (4) e0=E+[EL] (5) l0=L+[EL] where F is the observed fluorescence intensity at any given ligand (L) concentration; f0 is the background fluorescence; f1 and f2 are partial fluorescence intensities of the free enzyme (E) and enzyme–ligand complex (EL), respectively; e0 and l0 are total concentrations of the enzyme and ligand.
Figure S2. Equilibrium binding of the wild-type and mutant ALKBH3 proteins to transition metals, 2OG, or m3C-containing DNA. The quenching of the enzyme ﬂuorescence is shown as a function of Fe(II) (A), Ni(II) (B), Co(II) (C), 2OG ( D), and single-stranded m3C substrate (E). The protein concentration was 1 µM. In the course of titration by Fe(II), a sodium ascorbate (1mM) was added to keep the metal in a reduced state. Experimental data points were ﬁtted to a single-site binding mode l (see “Materials and Methods”). Each trace represents the average of three technical […]
(1 picture or pasted object on this page, not shown here)

Row | Molecule | Tm [1] | Tm ([1]; listed as wt) [°C] | ΔH (enthalpy of unfolding) [1] [kcal/mol] | ΔS (entropy of unfolding) [1] | ΔH (enthalpy of unfolding) ([1]; listed as wt) [kcal/mol] | ΔG^298 [1] [kcal/mol] | Kd ([2]; listed as wt) [µM] | Kd [2] [µM] | increase in ΔH relative to wt [1] [kcal/mol] | increase in ΔS relative to wt [1] [cal/mol·K] | reduction in melting temperature relative to wt [1] [°C]
1 | wt ALKBH3: wild-type human Fe(II)/2OG-dependent dioxygenase ALKBH3 with N-terminal His-tag, expressed in E. coli (protein, UniProt Q96Q83 1-286, looked up, N-terminal His-tag, wild-type human Fe(II)/2OG-dependent dioxygenase ALKBH3 with N-terminal His-tag, expressed in E. coli) Alpha-ketoglutarate-dependent …: MEEKRRRARVQGAWAAPVKSQAIAQPATTAKSHLHQKPGQTWKNKEHHLSDREFVFKEPQQVVRRAPEPRVIDREGVYEISLSPTGVSRVCLYPGFVDVKEADWILEQLCQDVPWKQRTGIREDITYQQPRLTAWYGELPYTYSRITMEPNPHWHPVLRTLKNRIEENTGHTFNSLLCNLYRNEKDSVDWHSDDEPSLGRCPIIASLSFGATRTFEMRKKPPPEENGDYTYVERVKIPLDHGTLLIMEGATQADWQHRVPKEYHSREPRVNLTFRTVYPDPRGAPW | 45.5 °C and 45.6 °C | 45.6 ± 0.7 | 42 | 133 ± 2 cal/mol·K | 43 ± 1 | 3.4 ± 0.1 | 52 ± 7 | ~50 | – | – | –
2 | Y143F ALKBH3: ALKBH3 mutant, Tyr143 replaced with Phe (protein, UniProt Q96Q83 1-286, looked up, variant Y143F) Alpha-ketoglutarate-dependent …: MEEKRRRARVQGAWAAPVKSQAIAQPATTAKSHLHQKPGQTWKNKEHHLSDREFVFKEPQQVVRRAPEPRVIDREGVYEISLSPTGVSRVCLYPGFVDVKEADWILEQLCQDVPWKQRTGIREDITYQQPRLTAWYGELPYTFSRITMEPNPHWHPVLRTLKNRIEENTGHTFNSLLCNLYRNEKDSVDWHSDDEPSLGRCPIIASLSFGATRTFEMRKKPPPEENGDYTYVERVKIPLDHGTLLIMEGATQADWQHRVPKEYHSREPRVNLTFRTVYPDPRGAPW | 43.5 ± 0.4 °C | – | 75 ± 5 | 236 ± 3 cal/mol·K | – | 4.7 ± 0.3 | – | 52 ± 4 | 32 | 103 | 2.1
3 | H191A ALKBH3: ALKBH3 mutant, His191 replaced with Ala (protein, UniProt Q96Q83 1-286, looked up, variant H191A) Alpha-ketoglutarate-dependent …: MEEKRRRARVQGAWAAPVKSQAIAQPATTAKSHLHQKPGQTWKNKEHHLSDREFVFKEPQQVVRRAPEPRVIDREGVYEISLSPTGVSRVCLYPGFVDVKEADWILEQLCQDVPWKQRTGIREDITYQQPRLTAWYGELPYTYSRITMEPNPHWHPVLRTLKNRIEENTGHTFNSLLCNLYRNEKDSVDWASDDEPSLGRCPIIASLSFGATRTFEMRKKPPPEENGDYTYVERVKIPLDHGTLLIMEGATQADWQHRVPKEYHSREPRVNLTFRTVYPDPRGAPW | 42.7 ± 0.1 °C | – | 127 ± 9 | 403 cal/mol·K and 403 ± 0.4 cal/mol·K | – | 6.9 ± 0.5 | – | 34 ± 2 | – | – | –
4 | Y143A ALKBH3: ALKBH3 mutant, Tyr143 replaced with Ala (protein, UniProt Q96Q83 1-286, looked up, variant Y143A) Alpha-ketoglutarate-dependent …: MEEKRRRARVQGAWAAPVKSQAIAQPATTAKSHLHQKPGQTWKNKEHHLSDREFVFKEPQQVVRRAPEPRVIDREGVYEISLSPTGVSRVCLYPGFVDVKEADWILEQLCQDVPWKQRTGIREDITYQQPRLTAWYGELPYTASRITMEPNPHWHPVLRTLKNRIEENTGHTFNSLLCNLYRNEKDSVDWHSDDEPSLGRCPIIASLSFGATRTFEMRKKPPPEENGDYTYVERVKIPLDHGTLLIMEGATQADWQHRVPKEYHSREPRVNLTFRTVYPDPRGAPW | 44.2 ± 0.2 °C | – | 54 ± 2 | 170 ± 0.6 cal/mol·K | – | 3.3 ± 0.1 | – | 53 ± 10 | – | – | –
5 | L177A ALKBH3: ALKBH3 mutant, Leu177 replaced with Ala (protein, UniProt Q96Q83 1-286, looked up, variant L177A) Alpha-ketoglutarate-dependent …: MEEKRRRARVQGAWAAPVKSQAIAQPATTAKSHLHQKPGQTWKNKEHHLSDREFVFKEPQQVVRRAPEPRVIDREGVYEISLSPTGVSRVCLYPGFVDVKEADWILEQLCQDVPWKQRTGIREDITYQQPRLTAWYGELPYTYSRITMEPNPHWHPVLRTLKNRIEENTGHTFNSLACNLYRNEKDSVDWHSDDEPSLGRCPIIASLSFGATRTFEMRKKPPPEENGDYTYVERVKIPLDHGTLLIMEGATQADWQHRVPKEYHSREPRVNLTFRTVYPDPRGAPW | 44.5 ± 0.6 °C | – | 79 ± 5 | 249 ± 1.3 cal/mol·K | – | 4.8 ± 0.4 | – | 67 ± 8 | – | – | 1.1

From article PMC10816986, “The Role of Key Amino Acids of the Human Fe(II)/2OG-Dependent Dioxygenase ALKBH3 in Structural Dynamics and Repair Activity toward Methylated DNA” (International Journal of Molecular Sciences, 2024)
